# T1: His-tagged human PTK7 protein (human, UniProt Q13308 31-704)
# T1 construct: Bought protein; also called hPTK7-His; not shown: His tag
# T1 sequence: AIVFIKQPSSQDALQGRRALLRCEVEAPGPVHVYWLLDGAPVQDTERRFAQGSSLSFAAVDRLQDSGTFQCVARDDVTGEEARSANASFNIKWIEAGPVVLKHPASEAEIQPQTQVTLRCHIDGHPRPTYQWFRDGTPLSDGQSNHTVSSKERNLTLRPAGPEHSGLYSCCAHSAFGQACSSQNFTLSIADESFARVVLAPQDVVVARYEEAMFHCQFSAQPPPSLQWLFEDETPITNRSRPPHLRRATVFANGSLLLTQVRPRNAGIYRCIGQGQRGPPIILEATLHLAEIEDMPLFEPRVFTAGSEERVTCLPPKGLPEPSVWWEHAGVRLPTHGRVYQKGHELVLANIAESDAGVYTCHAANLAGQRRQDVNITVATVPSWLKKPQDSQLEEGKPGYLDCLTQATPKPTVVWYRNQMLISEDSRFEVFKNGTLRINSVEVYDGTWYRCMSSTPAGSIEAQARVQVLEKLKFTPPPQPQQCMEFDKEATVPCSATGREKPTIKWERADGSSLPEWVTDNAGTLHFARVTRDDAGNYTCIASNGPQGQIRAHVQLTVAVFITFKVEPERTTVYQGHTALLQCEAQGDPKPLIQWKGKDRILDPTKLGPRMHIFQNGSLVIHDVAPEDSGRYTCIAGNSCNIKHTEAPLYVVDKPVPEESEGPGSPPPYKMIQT
# T2: human PTK7 on human cancer cell lines (human, UniProt Q13308 31-1070)
# T2 construct: Endogenous PTK7 of human tumour cell lines; also called PTK7 on A-431, NCI-H520, NCI-N87, SK-OV-3, BT-20, HCC1954, NCI-H226, NCI-H358, HCT116, PC-3, NCI-H292, NCI-H1975 cells
# T2 sequence: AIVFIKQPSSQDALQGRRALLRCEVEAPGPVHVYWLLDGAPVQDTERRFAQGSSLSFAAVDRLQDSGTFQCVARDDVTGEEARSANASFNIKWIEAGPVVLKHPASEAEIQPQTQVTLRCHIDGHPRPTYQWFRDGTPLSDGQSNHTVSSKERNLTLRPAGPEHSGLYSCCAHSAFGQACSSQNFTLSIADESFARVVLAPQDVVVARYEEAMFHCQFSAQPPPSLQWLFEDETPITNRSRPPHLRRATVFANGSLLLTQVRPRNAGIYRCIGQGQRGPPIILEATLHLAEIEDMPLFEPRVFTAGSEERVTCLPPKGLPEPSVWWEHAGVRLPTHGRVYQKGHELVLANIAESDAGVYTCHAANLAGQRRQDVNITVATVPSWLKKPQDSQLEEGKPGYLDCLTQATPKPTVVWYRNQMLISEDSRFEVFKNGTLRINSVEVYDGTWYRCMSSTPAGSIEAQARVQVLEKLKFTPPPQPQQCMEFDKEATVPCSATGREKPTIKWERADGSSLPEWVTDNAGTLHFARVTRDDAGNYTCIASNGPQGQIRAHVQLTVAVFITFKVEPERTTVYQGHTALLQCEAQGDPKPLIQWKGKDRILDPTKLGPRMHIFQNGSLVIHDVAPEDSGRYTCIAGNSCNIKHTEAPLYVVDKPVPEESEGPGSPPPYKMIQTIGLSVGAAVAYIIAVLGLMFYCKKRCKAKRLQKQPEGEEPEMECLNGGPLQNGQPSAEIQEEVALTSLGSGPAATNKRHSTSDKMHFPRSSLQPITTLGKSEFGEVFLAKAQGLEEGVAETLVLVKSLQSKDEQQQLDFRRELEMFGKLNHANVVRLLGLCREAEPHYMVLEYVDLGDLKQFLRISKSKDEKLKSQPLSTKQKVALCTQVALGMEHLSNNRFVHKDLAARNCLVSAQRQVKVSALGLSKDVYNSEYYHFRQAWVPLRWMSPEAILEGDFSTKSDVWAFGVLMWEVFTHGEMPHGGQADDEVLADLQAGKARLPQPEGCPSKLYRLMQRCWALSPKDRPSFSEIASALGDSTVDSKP
# Experiments:
# [1] = target: T1, His-tagged human PTK7 protein; assay: BLI Octet binning on hPTK7-His; competitor 2F5
# Procedure: (§1) Relative positions of target protein epitope between a pair of purified anti-PTK7 antibodies were analyzed by Biolayer Interferometry (BLI) using ForteBio Octet system at 30° C. A total of […] purified antibodies were used: 1A7, 1A11, 1F2, 2A5, 2D11, 2F5, 3C4 and 3E6.
# (§2) 1×HBS-EP+ buffer (10 mM 4-(2-hydroxyethyl)-1-piperazineethanesulfonic acid (HEPES), 150 mM NaCl, 3 mM ethylenediaminetetraacetic acid (EDTA) and 0.05% P20, pH7.4) diluted from HBS-EP+ buffer (10×) was used as the running buffer throughout the experiment. His-tagged human PTK7 protein was captured at a flow rate of 10 μL/min, and 200 nM of antibody (Analyte 1) was injected at a flow rate of 30 μL/min to bind the ligand. Another antibody (Analyte 2) was injected under the same conditions to determine whether the binding of different antibodies interfered with each other. The binding time was 300 s for each antibody.
# (§3) The binding value of each antibody was obtained using Data Analysis HT 12.0. To quantify the interference of one antibody binding to another, a binding ratio was calculated to compare each pair of antibodies. The binding ratio is defined as the binding value of the second antibody (Analyte 2), divided by the binding value of the first antibody (Analyte 1). […] In general, antibody pairs that interfere with each other have the same or overlapping epitopes.
# [2] = target: T2, human PTK7 on human cancer cell lines; assay: flow cytometry, BT-20 cells, Ab 5 ug/mL
# Procedure: (§4) The binding activity of anti-PTK7 antibodies to cancer cell lines was verified by flow cytometry. […] Purified anti-PTK7 antibody with a concentration of 5 μg/mL was added to each well and was incubated at 4° C. for 30 minutes. […] The cells were collected, and the mean fluorescence intensity (MFI) was determined. Human IgG1 was used as ISO control.
# [3] = target: T2, human PTK7 on human cancer cell lines; assay: flow cytometry, SK-OV-3 cells, Ab 5 ug/mL
# Procedure: as §4
# [4] = target: T1, His-tagged human PTK7 protein; assay: BLI Octet binning on hPTK7-His; competitor 1A7
# Procedure: as §1, §2, §3
# [5] = target: T1, His-tagged human PTK7 protein; assay: BLI Octet binning on hPTK7-His; competitor hu24 analog
# Procedure: as §1, §2, §3
# [6] = target: T2, human PTK7 on human cancer cell lines; assay: flow cytometry, A-431 cells, Ab 5 ug/mL
# Procedure: as §4
# [7] = target: T2, human PTK7 on human cancer cell lines; assay: flow cytometry, PC-3 cells, Ab 5 ug/mL
# Procedure: as §4
Binder,binding ratio [1],MFI [2],MFI [3],binding ratio [4],binding ratio [5],MFI [6],MFI [7]
"3C4 (antibody, V domains shown, also called anti-PTK7 antibody 3C4) VH: QVQLEQSRAEVKKPGESLRISCKGSGYSFTSYWISWVRQMPGKGLEWMGRIDPSDSYTNYNPSFQGHVTISADKSISTAYLQWSSLKASDTAMYYCARRDGSYFDFDYWGQGTLVTVSS VL: not shown",0.86,148000,304000,0.87,1.22,186000,66700
"1A11 (antibody, V domains shown, also called anti-PTK7 antibody 1A11) VH: QVQLVQSGPGLVKPSETLSLTCTVSGGSINSYYWNWIRQPPGKGLEWIGYIYYSGSTNYNPSLKSRVTISVDTSKNQFSLKLSSVTAADTAVYYCARDPHDYIRGHFDLWGRGTLFTVSS VL: not shown",0.67,136000,319000,0.71,0.97,247000,67200
"1F2 (antibody, V domains shown, also called anti-PTK7 antibody 1F2) VH: QVQLVQSGGGLVQPGGSLRLSCAASGFTFSRYEMNWVRQAPGKGLEWVSYINSIGSAINYADSVKGRFTISRDNAKNSLYLQMRSLRAEDTAVYYCVREDNWNPGYWGQGTLVTVSS VL: not shown",0.56,50900,210000,0.64,0.95,156000,34900
"1A7 (antibody, human IgG1, V domains shown, also called anti-PTK7 antibody 1A7) VH: QVQLVESGGGVVQPGRSLRLSCAASGFTFSNYGMHWVRQAPGKGLEWVAVIYYDGSNKFYADSVKGRFTISRDNSKNTLYLQMSSLRAEDTAVYYCARDVAPPGSRAEYFHHWGQGTLVTVSS VL: not shown",0.07,86200,197000,0.08,0.2,91100,32500
"2A5 (antibody, V domains shown, also called anti-PTK7 antibody 2A5) VH: QVQLVQSGGGVVQPGRSLRLSCAASGFTFSNYGMHWVRQAPGKGLEWVAVIWYDGRNKYYADSVKGRFTISRDNSKNTLYLQMNSLRAEDTAVYYCARDVAPAGSRAEYFQNWGQGTLVTVSS VL: not shown",-0.02,137000,283000,-0.02,0.04,173000,60700

# Results, then the binder that gave them:
binding ratio [1],MFI [2],MFI [3],binding ratio [4],binding ratio [5],MFI [6],MFI [7],Binder
0.71,152000,373000,0.71,0.98,289000,94600,"3E6 (antibody, V domains shown, also called anti-PTK7 antibody 3E6) VH: QVQLVESGAEVKKPGESLRISCRGSGYSFTSYWISWVRQMPGKGLEWMGRIDPSDSYTKYSPSFQGHVTISADKSISTAYLQWSSLKASDTAMYYCARRDGDYFDFDYWGQGTLVTVSS VL: not shown"
0.14,172000,371000,0.17,0.21,295000,73000,"2D11 (antibody, V domains shown, also called anti-PTK7 antibody 2D11) VH: QVQLVESGGGVVQPGRSLRLSCAASGFTFSSYGMHWVRQAPGKGLEWVAVIFYDGSNKYYADSVKGRFTISRDNSKNTLYLQMNSLRAEDTSVYYCARDVAAPGSRAEYFQNWGQGTLVTVSS VL: not shown"
0.08,83800,178000,0.12,0.19,106000,32400,"2F5 (antibody, V domains shown, also called anti-PTK7 antibody 2F5) VH: QVQLVESGGGVVQPGRSLRLSCVASGFTFSNYGMHWVRQAPGKGLEWVAIIYYDGSNKYYADSVKGRFTISRDNSKNTLYLQMNSLRAEDTAVYYCARDVAAAGSRAEYLHHWGQGTLVTVSS VL: not shown"
